Consider one molecule from patent publication US20250262210A1 (TRUSTEES OF COLUMBIA UNIVERSITY IN THE CITY OF NEW YORK, published 2025).

The experiment has as its target T1, ELP1 (human, UniProt O95163 1-1332).
T1 sequence (looked up): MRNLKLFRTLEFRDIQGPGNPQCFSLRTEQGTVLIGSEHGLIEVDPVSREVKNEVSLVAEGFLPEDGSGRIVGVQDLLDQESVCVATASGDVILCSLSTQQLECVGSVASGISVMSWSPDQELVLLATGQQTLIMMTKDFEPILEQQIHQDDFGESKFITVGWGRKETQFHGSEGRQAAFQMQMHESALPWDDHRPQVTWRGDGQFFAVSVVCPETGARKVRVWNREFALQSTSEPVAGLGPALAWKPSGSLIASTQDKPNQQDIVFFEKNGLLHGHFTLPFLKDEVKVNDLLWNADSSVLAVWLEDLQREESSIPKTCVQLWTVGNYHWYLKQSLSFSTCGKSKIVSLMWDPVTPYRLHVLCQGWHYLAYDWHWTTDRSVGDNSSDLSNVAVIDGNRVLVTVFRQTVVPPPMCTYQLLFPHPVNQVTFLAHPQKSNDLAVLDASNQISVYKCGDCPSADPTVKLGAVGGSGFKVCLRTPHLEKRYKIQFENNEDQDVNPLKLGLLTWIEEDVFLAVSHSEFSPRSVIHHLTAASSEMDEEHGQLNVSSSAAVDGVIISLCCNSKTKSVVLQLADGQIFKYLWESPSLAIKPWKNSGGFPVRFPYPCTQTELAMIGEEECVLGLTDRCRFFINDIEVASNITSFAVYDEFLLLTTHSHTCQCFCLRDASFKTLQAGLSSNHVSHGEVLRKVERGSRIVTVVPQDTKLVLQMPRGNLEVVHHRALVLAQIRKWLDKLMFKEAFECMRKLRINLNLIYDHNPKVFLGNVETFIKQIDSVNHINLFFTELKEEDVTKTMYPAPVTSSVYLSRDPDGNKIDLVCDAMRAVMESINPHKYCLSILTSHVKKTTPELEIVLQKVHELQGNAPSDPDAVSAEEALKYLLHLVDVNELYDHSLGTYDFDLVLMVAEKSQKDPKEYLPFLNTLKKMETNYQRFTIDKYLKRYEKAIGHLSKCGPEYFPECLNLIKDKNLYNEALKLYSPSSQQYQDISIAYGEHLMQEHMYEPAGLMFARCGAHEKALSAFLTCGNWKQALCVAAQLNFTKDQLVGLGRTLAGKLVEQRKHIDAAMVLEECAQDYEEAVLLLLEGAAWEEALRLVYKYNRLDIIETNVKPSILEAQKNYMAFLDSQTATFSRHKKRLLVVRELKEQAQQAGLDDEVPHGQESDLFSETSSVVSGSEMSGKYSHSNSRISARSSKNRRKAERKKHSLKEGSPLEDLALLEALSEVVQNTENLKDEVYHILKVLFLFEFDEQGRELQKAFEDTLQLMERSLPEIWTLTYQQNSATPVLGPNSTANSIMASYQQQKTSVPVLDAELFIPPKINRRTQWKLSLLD
Description: IP/MS, LZTR1 wild type-FLAG, U87. The gist of the method:
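Extracted peptides in 3% acetonitrile/0.1% formic acid ran on a 50 cm C18 column into an Orbitrap Fusion, with MaxQuant identification and spectral counting.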

B1: LZTR1-FLAG (other, human, UniProt Q8N653 1-840, looked up)
chain: MAGPGSTGGQIGAAALAGGARSKVAPSVDFDHSCSDSVEYLTLNFGPFETVHRWRRLPPCDEFVGARRSKHTVVAYKDAIYVFGGDNGKTMLNDLLRFDVKDCSWCRAFTTGTPPAPRYHHSAVVYGSSMFVFGGYTGDIYSNSNLKNKNDLFEYKFATGQWTEWKIEGRLPVARSAHGATVYSDKLWIFAGYDGNARLNDMWTIGLQDRELTCWEEVAQSGEIPPSCCNFPVAVCRDKMFVFSGQSGAKITNNLFQFEFKDKTWTRIPTEHLLRGSPPPPQRRYGHTMVAFDRHLYVFGGAADNTLPNELHCYDVDFQTWEVVQPSSDSEVGGAEVPERACASEEVPTLTYEERVGFKKSRDVFGLDFGTTSAKQPTQPASELPSGRLFHAAAVISDAMYIFGGTVDNNIRSGEMYRFQFSCYPKCTLHEDYGRLWESRQFCDVEFVLGEKEECVQGHVAIVTARSRWLRRKITQARERLAQKLEQEAAPVPREAPGVAAGGARPPLLHVAIREAEARPFEVLMQFLYTDKIKYPRKGHVEDVLLIMDVYKLALSFQLCRLEQLCRQYIEASVDLQNVLVVCESAARLQLSQLKEHCLNFVVKESHFNQVIMMKEFERLSSPLIVEIVRRKQQPPPRTPLDQPVDIGTSLIQDMKAYLEGAGAEFCDITLLLDGHPRPAHKAILAARSSYFEAMFRSFMPEDGQVNISIGEMVPSRQAFESMLRYIYYGEVNMPPEDSLYLFAAPYYYGFYNNRLQAYCKQNLEMNVTVQNVLQILEAADKTQALDMKRHCLHIIVHQFTKVSKLPTLRSLSQQLLLDIIDSLASHISDKQCAELGADI
notes: Expressed in HEK 293T, HeLa or U87 cells; used as cell lysate; also called LZTR1 wild type-FLAG; LZTR1 WT; not shown: FLAG tag at the C-terminus
As for B1, the binding result is “binds”.
